The target in assay [1] is T1, hPHD-HD1 complex (hPygo1 PHD 333-402 with hBCL9 HD1) (human, UniProt Q9Y3Y4 333-402; O00512 177-205).
T1 construct: PHD finger of human Pygo1, amino acids 333-402; also called binary complex; human PHD-HD1 complex; source: E. coli BL21-CodonPlus(DE3)-RIL, coexpressed from a bicistronic vector, purified as a complex; not shown: GST, N-terminal, cleaved; MBP, N-terminal, cleaved
T1 sequence (looked up) 1: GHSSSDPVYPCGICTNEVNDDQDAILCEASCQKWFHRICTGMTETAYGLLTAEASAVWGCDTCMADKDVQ
T1 sequence (looked up) 2: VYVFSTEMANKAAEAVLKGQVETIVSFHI
Briefly: ITC; protein dialysed into 100 mM NaCl, 25 mM Tris-HCl (pH 8.0), 10 uM ZnCl2, 2 mM beta-mercaptoethanol; histone peptides with free PHD or PHD-HD1 complex; one-site model. Particulars: both partners purified. (Isothermal titration calorimetry measures the heat released or taken up as one component is titrated into another.)

The target of another assay is T2, hPygo1 PHD finger E349A (human, UniProt Q9Y3Y4 333-402, E349A).
T2 construct: PHD finger of human Pygo1 with E349A; source: E. coli, purified; not shown: GST, N-terminal, cleaved
T2 sequence (looked up): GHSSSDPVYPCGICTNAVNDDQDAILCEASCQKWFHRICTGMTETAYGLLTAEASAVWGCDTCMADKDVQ
The assay is described as above. The note with it: both partners purified.

Our source for the Kd values is article PMC2726290, “Decoding of Methylated Histone H3 Tail by the Pygo-BCL9 Wnt Signaling Complex” (Molecular Cell, 2008).

In general, Kd refers to the free concentration of one partner at which half of the binding sites on the other are occupied at equilibrium, for simple one-to-one binding. Low readings indicate tighter binding, high ones weaker binding.

B1: H3R2me2aK4me2 18-mer histone H3 tail peptide (peptide, UniProt P68431 2-19, looked up)
peptide: ARTKQTARKSTGGKAPRK
modifications: asymmetric dimethyl-arginine at R2 (R2me2a); dimethyl-lysine at K4
notes: histone H3 tail, 18-mer; Only the first seven residues are modelled in the structure; also called 18-mer histone H3 tail carrying both K4me2 and asymmetrically methylated R2 (R2me2a)
Turning to B1, in assay [1], the Kd was 2.1 µM. This counts as single-digit micromolar.

B2: H3K4me2 9-mer histone H3 tail peptide (peptide, UniProt P68431 2-10, looked up)
peptide: ARTKQTARK
modifications: dimethyl-lysine at K4
notes: histone H3 tail, 9-mer; the limits follow from the truncated form 'spanning R2-K9 (without A1)'; Only the first seven residues are modelled in the structure; also called 9-mer H3K4me2 peptide
Consider B2, for which the Kd in assay [1] came out at 11 µM.
Regarding ARTKQTARKSTGGKA (peptide, UniProt P68431 2-16, looked up, trimethyl-lysine at K4, histone H3 tail, 15-mer) [H3K4me3 15-mer histone H3 tail peptide], the Kd in the assay with hPygo1 PHD finger E349A was 22 µM.
